In publication PMC7084321, “Structural and Functional Characterization of New SsoPox Variant Points to the Dimer Interface as a Driver for the Increase in Promiscuous Paraoxonase Activity” (International Journal of Molecular Sciences, 2020):

Biological target: the molecule itself
Test: crystal structure; sitting drop vapor diffusion at 19 °C; space group P212121, two dimers per asymmetric unit; 4Mut at 6.0 mg/mL in 20 mM HEPES-NaOH pH 8.5, 0.5 mM CoCl2, 200 mM NaCl

B1: SsoPox V82L/C258L/I261F/W263A (4Mut) (enzyme, Saccharolobus solfataricus, UniProt Q97VT7 1-314, looked up)
chain: MRIPLVGKDSIESKDIGFTLIHEHLRVFSEAVRQQWPHLYNEDEEFRNAVNEVKRAMQFGVKTIVDPTVMGLGRDIRFMEKLVKATGINLVAGTGIYIYIDLPFYFLNRSIDEIADLFIHDIKEGIQGTLNKAGFVKIAADEPGITKDVEKVIRAAAIANKETKVPIITHSNAHNNTGLEQQRILTEEGVDPGKILIGHLGDTDNIDYIKKIADKGSFIGLDRYGLDLFLPVDKRNETTLRLIKDGYSDKIMISHDYLCTFDAGTAKPEYKPKLAPRWSITLIFEDTIPFLKRNGVNEEVIATIFKENPKKFFS
notes: SsoPox, phosphotriesterase-like lactonase from Saccharolobus solfataricus, with four substitutions; primers run from the start codon (NdeI site) to behind the stop codon (HindIII site); Two cobalt atoms per protein by ICP-MS; also called SsoPox 4Mut; SsoPox-4Mut; source: E. coli BL21(DE3), pT7-7-4Mut, purified (thermoprecipitation, Q-Sepharose, Superdex 75, MonoQ)
  binding result: binds
